Reference: US20250066503A1, “CELL INJURY INDUCING THERAPEUTIC DRUG FOR USE IN CANCER THERAPY” (CHUGAI SEIYAKU KABUSHIKI KAISHA, priority 2016, published 2025)

Each binder was assayed against T1, soluble human CD3 epsilon chain (human, UniProt P07766 23-126) (assay: SPR).
T1 construct: also called CD3ε
T1 sequence (P07766 23-126 limits assumed): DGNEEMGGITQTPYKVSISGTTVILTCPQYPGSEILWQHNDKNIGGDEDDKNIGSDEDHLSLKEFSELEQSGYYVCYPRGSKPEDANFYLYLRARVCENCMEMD

| Binder | Kd [nM] |
| --- | --- |
| TR01H040-E22Hh/none-Hi-Kn010G3/L0200-k0 (antibody, V domains shown, one-arm) VH: QVQLVESGGGLVQPGRSLRLSCAASGFTFSNAWMHWVRQAPGKGLEWVAQIKDKSQNYATYYAESVKGRFTISRADSKNSIYLQMNSLKTEDTAVYYCRYVHYSASYGVDAWGQGTTVTVSS VL: DIVMTQSPLSLPVTPGEPASISCRPSQSPVHSNRNTYLHWYQQKPGQAPRLLIYKVSNRFSGVPDRFSGSGSGTDFTLKISRVEAEDVGVYYCGQGTQVPYTFGQGTKLEIK | 28.7 |
| TR01H040-E22Hh/none-Hi-Kn010G3/L0216-k0 (antibody, V domains shown, one-arm) VH: QVQLVESGGGLVQPGRSLRLSCAASGFTFSNAWMHWVRQAPGKGLEWVAQIKDKSQNYATYYAESVKGRFTISRADSKNSIYLQMNSLKTEDTAVYYCRYVHYSASYGVDAWGQGTTVTVSS VL: DIVMTQSPLSLPVTPGEPASISCRSSQPLVHSNRNTYLHWYQQKPGQAPRLLIYKVSNRFRGVPDRFSGSGSGTDFTLKISRVEAEDVGVYYCGQGTQVPYTFGQGTKLEIK | 25.3 |
| TR01H040-E22Hh/none-Hi-Kn010G3/L0226-k0 (antibody, V domains shown, one-arm) VH: QVQLVESGGGLVQPGRSLRLSCAASGFTFSNAWMHWVRQAPGKGLEWVAQIKDKSQNYATYYAESVKGRFTISRADSKNSIYLQMNSLKTEDTAVYYCRYVHYSASYGVDAWGQGTTVTVSS VL: DIVMTQSPLSLPVTPGEPASISCRSSQSPVHSNRNTYIHWYQQKPGQAPRLLIYKVSNRFSGVPDRFSGSGSGTDFTLKISRVEAEDVGVYYCIQGTQVPYTFGQGTKLEIK | 80.1 |
| TR01H040-E22Hh/none-Hi-Kn010G3/L0202-k0 (antibody, V domains shown, one-arm) VH: QVQLVESGGGLVQPGRSLRLSCAASGFTFSNAWMHWVRQAPGKGLEWVAQIKDKSQNYATYYAESVKGRFTISRADSKNSIYLQMNSLKTEDTAVYYCRYVHYSASYGVDAWGQGTTVTVSS VL: DIVMTQSPLSLPVTPGEPASISCRSSQSPVHSNRWTYLHWYQQKPGQAPRLLIYKVSNRFSGVPDRFSGSGSGTDFTLKISRVEAEDVGVYYCGQGTQVPYTFGQGTKLEIK | 61.9 |
| TR01H040-E22Hh/none-Hi-Kn010G3/L0227-k0 (antibody, V domains shown, one-arm) VH: QVQLVESGGGLVQPGRSLRLSCAASGFTFSNAWMHWVRQAPGKGLEWVAQIKDKSQNYATYYAESVKGRFTISRADSKNSIYLQMNSLKTEDTAVYYCRYVHYSASYGVDAWGQGTTVTVSS VL: DIVMTQSPLSLPVTPGEPASISCRSSQSPVHSNRNTYIHWYQQKPGQAPRLLIYKVSNRFSGVPDRFSGSGSGTDFTLKISRVEAEDVGVYYCLQGTQVPYTFGQGTKLEIK | 101 |
| TR01H040-E22Hh/none-Hi-Kn010G3/L0219-k0 (antibody, V domains shown, one-arm) VH: QVQLVESGGGLVQPGRSLRLSCAASGFTFSNAWMHWVRQAPGKGLEWVAQIKDKSQNYATYYAESVKGRFTISRADSKNSIYLQMNSLKTEDTAVYYCRYVHYSASYGVDAWGQGTTVTVSS VL: DIVMTQSPLSLPVTPGEPASISCRSSQSLVHSNRNTYIHWYQQKPGQAPRLLIYKVSNRFRGVPDRFSGSGSGTDFTLKISRVEAEDVGVYYCGQGTQVPYTFGQGTKLEIK | 39.4 |
| TR01H040-E22Hh/none-Hi-Kn010G3/L0215-k0 (antibody, V domains shown, one-arm) VH: QVQLVESGGGLVQPGRSLRLSCAASGFTFSNAWMHWVRQAPGKGLEWVAQIKDKSQNYATYYAESVKGRFTISRADSKNSIYLQMNSLKTEDTAVYYCRYVHYSASYGVDAWGQGTTVTVSS VL: DIVMTQSPLSLPVTPGEPASISCRSSQPPVHSNRNTYIHWYQQKPGQAPRLLIYKVSNRFSGVPDRFSGSGSGTDFTLKISRVEAEDVGVYYCGQGTQVPYTFGQGTKLEIK | 33.7 |
| TR01H040-E22Hh/none-Hi-Kn010G3/L0233-k0 (antibody, V domains shown, one-arm) VH: QVQLVESGGGLVQPGRSLRLSCAASGFTFSNAWMHWVRQAPGKGLEWVAQIKDKSQNYATYYAESVKGRFTISRADSKNSIYLQMNSLKTEDTAVYYCRYVHYSASYGVDAWGQGTTVTVSS VL: DIVMTQSPLSLPVTPGEPASISCRSSQELVHSNRNTYLHWYQQKPGQAPRLLIYKVSNRFSGVPDRFSGSGSGTDFTLKISRVEAEDVGVYYCGQGTQVPYTFGQGTKLEIK | 40.1 |
| TR01H040-E22Hh/none-Hi-Kn010G3/L0232-k0 (antibody, V domains shown, one-arm) VH: QVQLVESGGGLVQPGRSLRLSCAASGFTFSNAWMHWVRQAPGKGLEWVAQIKDKSQNYATYYAESVKGRFTISRADSKNSIYLQMNSLKTEDTAVYYCRYVHYSASYGVDAWGQGTTVTVSS VL: DIVMTQSPLSLPVTPGEPASISCRSSESLVHSNRNTYLHWYQQKPGQAPRLLIYKVSNRFSGVPDRFSGSGSGTDFTLKISRVEAEDVGVYYCGQGTQVPYTFGQGTKLEIK | 38.6 |
| TR01H040-E22Hh/none-Hi-Kn010G3/L0234-k0 (antibody, V domains shown, one-arm) VH: QVQLVESGGGLVQPGRSLRLSCAASGFTFSNAWMHWVRQAPGKGLEWVAQIKDKSQNYATYYAESVKGRFTISRADSKNSIYLQMNSLKTEDTAVYYCRYVHYSASYGVDAWGQGTTVTVSS VL: DIVMTQSPLSLPVTPGEPASISCRSSQEPVHSNRNTYLHWYQQKPGQAPRLLIYKVSNRFRGVPDRFSGSGSGTDFTLKISRVEAEDVGVYYCGQGTQVPYTFGQGTKLEIK | 24 |
| TR01H040-E22Hh/none-Hi-Kn010G3/L0205-k0 (antibody, V domains shown, one-arm) VH: QVQLVESGGGLVQPGRSLRLSCAASGFTFSNAWMHWVRQAPGKGLEWVAQIKDKSQNYATYYAESVKGRFTISRADSKNSIYLQMNSLKTEDTAVYYCRYVHYSASYGVDAWGQGTTVTVSS VL: DIVMTQSPLSLPVTPGEPASISCRSSQSPVHSNRNTYLHWYQQKPGQAPRLLIYKVSNRFWGVPDRFSGSGSGTDFTLKISRVEAEDVGVYYCGQGTQVPYTFGQGTKLEIK | 34.2 |

The next binders have a lower Kd than those just listed; values first:

| Kd [nM] | Binder |
| --- | --- |
| 20.7 | TR01H040-E22Hh/none-Hi-Kn010G3/L0217-k0 (antibody, V domains shown, one-arm) VH: QVQLVESGGGLVQPGRSLRLSCAASGFTFSNAWMHWVRQAPGKGLEWVAQIKDKSQNYATYYAESVKGRFTISRADSKNSIYLQMNSLKTEDTAVYYCRYVHYSASYGVDAWGQGTTVTVSS VL: DIVMTQSPLSLPVTPGEPASISCRPSQSLVHSNRNTYLHWYQQKPGQAPRLLIYKVSNRFRGVPDRFSGSGSGTDFTLKISRVEAEDVGVYYCGQGTQVPYTFGQGTKLEIK |
| 20.2 | TR01H040-E22Hh/none-Hi-Kn010G3/L0214-k0 (antibody, V domains shown, one-arm) VH: QVQLVESGGGLVQPGRSLRLSCAASGFTFSNAWMHWVRQAPGKGLEWVAQIKDKSQNYATYYAESVKGRFTISRADSKNSIYLQMNSLKTEDTAVYYCRYVHYSASYGVDAWGQGTTVTVSS VL: DIVMTQSPLSLPVTPGEPASISCRSSQPPVHSNRNTYLHWYQQKPGQAPRLLIYKVSNRFRGVPDRFSGSGSGTDFTLKISRVEAEDVGVYYCGQGTQVPYTFGQGTKLEIK |
| 20.1 | TR01H040-E22Hh/none-Hi-Kn010G3/L0213-k0 (antibody, V domains shown, one-arm) VH: QVQLVESGGGLVQPGRSLRLSCAASGFTFSNAWMHWVRQAPGKGLEWVAQIKDKSQNYATYYAESVKGRFTISRADSKNSIYLQMNSLKTEDTAVYYCRYVHYSASYGVDAWGQGTTVTVSS VL: DIVMTQSPLSLPVTPGEPASISCRSSQSPVHSNRNTYIHWYQQKPGQAPRLLIYKVSNRFRGVPDRFSGSGSGTDFTLKISRVEAEDVGVYYCGQGTQVPYTFGQGTKLEIK |
| 16 | TR01H040-E22Hh/none-Hi-Kn010G3/L0228-k0 (antibody, V domains shown, one-arm) VH: QVQLVESGGGLVQPGRSLRLSCAASGFTFSNAWMHWVRQAPGKGLEWVAQIKDKSQNYATYYAESVKGRFTISRADSKNSIYLQMNSLKTEDTAVYYCRYVHYSASYGVDAWGQGTTVTVSS VL: DIVMTQSPLSLPVTPGEPASISCRSSQSPVHSNRNTYIHWYQQKPGQAPRLLIYKVSNRFSGVPDRFSGSGSGTDFTLKISRVEAEDVGVYYCVQGTQVPYTFGQGTKLEIK |
| 9.15 | TR01H040-E22Hh/none-Hi-Kn010G3/L0220-k0 (antibody, V domains shown, one-arm) VH: QVQLVESGGGLVQPGRSLRLSCAASGFTFSNAWMHWVRQAPGKGLEWVAQIKDKSQNYATYYAESVKGRFTISRADSKNSIYLQMNSLKTEDTAVYYCRYVHYSASYGVDAWGQGTTVTVSS VL: DIVMTQSPLSLPVTPGEPASISCRSSQPLVHSNRNTYLHWYQQKPGQAPRLLIYKVSNRFRGVPDRFSGSGSGTDFTLKISRVEAEDVGVYYCYQGTQVPYTFGQGTKLEIK |
| 8.2 | TR01H040-E22Hh/none-Hi-Kn010G3/L0218-k0 (antibody, V domains shown, one-arm) VH: QVQLVESGGGLVQPGRSLRLSCAASGFTFSNAWMHWVRQAPGKGLEWVAQIKDKSQNYATYYAESVKGRFTISRADSKNSIYLQMNSLKTEDTAVYYCRYVHYSASYGVDAWGQGTTVTVSS VL: DIVMTQSPLSLPVTPGEPASISCRSSQSLVHSNRNTYLHWYQQKPGQAPRLLIYKVSNRFRGVPDRFSGSGSGTDFTLKISRVEAEDVGVYYCYQGTQVPYTFGQGTKLEIK |
| 8.15 | TR01H040-E22Hh/none-Hi-Kn010G3/L0223-k0 (antibody, V domains shown, one-arm) VH: QVQLVESGGGLVQPGRSLRLSCAASGFTFSNAWMHWVRQAPGKGLEWVAQIKDKSQNYATYYAESVKGRFTISRADSKNSIYLQMNSLKTEDTAVYYCRYVHYSASYGVDAWGQGTTVTVSS VL: DIVMTQSPLSLPVTPGEPASISCRSSQSPVHSNRNTYIHWYQQKPGQAPRLLIYKVSNRLSGVPDRFSGSGSGTDFTLKISRVEAEDVGVYYCYQGTQVPYTFGQGTKLEIK |
| 7.75 | TR01H040-E22Hh/none-Hi-Kn010G3/L0231-k0 (antibody, V domains shown, one-arm) VH: QVQLVESGGGLVQPGRSLRLSCAASGFTFSNAWMHWVRQAPGKGLEWVAQIKDKSQNYATYYAESVKGRFTISRADSKNSIYLQMNSLKTEDTAVYYCRYVHYSASYGVDAWGQGTTVTVSS VL: DIVMTQSPLSLPVTPGEPASISCRSSQSPVHSNRNTYIHWYQQKPGQAPRLLIYKVSNRFSGVPDRFSGSGSGTDFTLKISRVEAEDVGVYYCYQGTQWPYTFGQGTKLEIK |
| 5.06 | TR01H040-E22Hh/none-Hi-Kn010G3/L0224-k0 (antibody, V domains shown, one-arm) VH: QVQLVESGGGLVQPGRSLRLSCAASGFTFSNAWMHWVRQAPGKGLEWVAQIKDKSQNYATYYAESVKGRFTISRADSKNSIYLQMNSLKTEDTAVYYCRYVHYSASYGVDAWGQGTTVTVSS VL: DIVMTQSPLSLPVTPGEPASISCRSSQSPVHSNRNTYIHWYQQKPGQAPRLLIYKVSNRFPGVPDRFSGSGSGTDFTLKISRVEAEDVGVYYCYQGTQVPYTFGQGTKLEIK |
| 5.06 | TR01H040-E22Hh/none-Hi-Kn010G3/L0210-k0 (antibody, V domains shown, one-arm) VH: QVQLVESGGGLVQPGRSLRLSCAASGFTFSNAWMHWVRQAPGKGLEWVAQIKDKSQNYATYYAESVKGRFTISRADSKNSIYLQMNSLKTEDTAVYYCRYVHYSASYGVDAWGQGTTVTVSS VL: DIVMTQSPLSLPVTPGEPASISCRSSQSPVHSNRWTYLHWYQQKPGQAPRLLIYKVSNRFSGVPDRFSGSGSGTDFTLKISRVEAEDVGVYYCYQGTQVPYTFGQGTKLEIK |
| 2.6 | TR01H040-E22Hh/none-Hi-Kn010G3/L0207-k0 (antibody, V domains shown, one-arm) VH: QVQLVESGGGLVQPGRSLRLSCAASGFTFSNAWMHWVRQAPGKGLEWVAQIKDKSQNYATYYAESVKGRFTISRADSKNSIYLQMNSLKTEDTAVYYCRYVHYSASYGVDAWGQGTTVTVSS VL: DIVMTQSPLSLPVTPGEPASISCRSSQSPVHSNRNTYLHWYQQKPGQAPRLLIYKVSNRFRGVPDRFSGSGSGTDFTLKISRVEAEDVGVYYCYQGTQVPYTFGQGTKLEIK |
